PMC10776994, “The SDS22:PP1:I3 complex: SDS22 binding to PP1 loosens the active site metal to prime metal exchange” (The Journal of Biological Chemistry, 2023)

Experiments:
[1] = target: PP1alpha 7-330 (Homo sapiens) (UniProt P62136); experiment: SPR; conditions: cited from earlier work
PP1α_(1-330) = target: T1, PP1α_(1-330) (UniProt P62136 1-330); experiment: NMR titration; 2D [1H,15N] HSQC of 15N-labelled I3_(1-126) free and in complex; loss of cross-peaks on binding; 283 K, 20 mM Bis-Tris pH 6.8, 500 mM NaCl, 0.5 mM TCEP; conditions: both partners purified
T1 construct: Protein phosphatase 1 alpha catalytic subunit (PP1α), residues 1-330; also called Protein Phosphatase 1
T1 sequence (P62136 whole entry, the tested form may be a part): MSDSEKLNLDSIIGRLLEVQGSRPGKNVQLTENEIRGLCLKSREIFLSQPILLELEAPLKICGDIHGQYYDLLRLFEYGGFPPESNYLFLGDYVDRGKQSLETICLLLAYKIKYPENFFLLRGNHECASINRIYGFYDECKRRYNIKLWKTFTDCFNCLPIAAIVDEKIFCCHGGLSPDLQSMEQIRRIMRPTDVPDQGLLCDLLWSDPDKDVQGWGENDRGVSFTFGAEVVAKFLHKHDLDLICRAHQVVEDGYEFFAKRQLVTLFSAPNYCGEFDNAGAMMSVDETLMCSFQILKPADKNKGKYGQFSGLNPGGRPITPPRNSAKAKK

[2] = target: T2, SDS22_(56-360):PP1α_(7-330) complex (UniProt Q15435 56-360; P62136 7-330); experiment: SPR; His6-PP1 constructs or SDS22_(56-360):PP1α_(7-330) captured on a Ni-NTA chip (NiHC200M), I3 and variants injected; 25 °C; 20 mM Tris pH 8.0, 500 mM NaCl, 0.5 mM TCEP, 0.05% Tween-20; one-to-one one-state or two-state fit; conditions: both partners purified
T2 construct: SDS22 (PPP1R7), residues 56-360; Protein phosphatase 1 alpha catalytic subunit (PP1α), residues 7-330; PP1 in this complex lacks the M1 metal; The same complex treated with EDTA (M2 metal extracted) is kept as this molecule and told apart by assay a4; the His6 tag of SDS22 was cleaved, so it is probably His6-PP1; also called SDS22:PP1; SDS22:PP1_(M2-metal-free) / metal-free …
T2 sequence (Q15435 56-360, chain 1 of 2): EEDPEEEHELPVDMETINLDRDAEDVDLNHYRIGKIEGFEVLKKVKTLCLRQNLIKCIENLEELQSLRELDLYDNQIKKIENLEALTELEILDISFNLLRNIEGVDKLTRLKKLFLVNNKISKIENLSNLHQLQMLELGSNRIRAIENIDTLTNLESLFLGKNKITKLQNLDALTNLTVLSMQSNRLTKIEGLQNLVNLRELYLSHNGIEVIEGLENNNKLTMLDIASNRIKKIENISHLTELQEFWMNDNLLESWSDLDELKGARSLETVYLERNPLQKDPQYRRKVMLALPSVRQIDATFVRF
T2 sequence (P62136 7-330, chain 2 of 2): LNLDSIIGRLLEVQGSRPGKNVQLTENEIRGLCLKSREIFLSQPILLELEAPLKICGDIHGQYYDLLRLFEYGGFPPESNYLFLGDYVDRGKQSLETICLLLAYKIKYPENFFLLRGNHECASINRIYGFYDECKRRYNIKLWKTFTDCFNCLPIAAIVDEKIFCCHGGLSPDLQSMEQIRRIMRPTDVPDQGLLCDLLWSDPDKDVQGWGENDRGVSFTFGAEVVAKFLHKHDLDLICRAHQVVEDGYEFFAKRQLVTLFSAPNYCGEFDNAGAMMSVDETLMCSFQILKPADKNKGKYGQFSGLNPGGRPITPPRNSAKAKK

Sequence of PP1alpha 7-330 (Homo sapiens) (P62136 7-330): as the sequence (P62136 7-330, chain 2 of 2) above

Molecule | Kd [1] [nM] | binding result (PP1α_(1-330)) | Kd [2] [nM]
I3 27-68 (from UniProt O60927) | 10 |  | 
I3 1-126 (from UniProt O60927) | 10 |  | 
Inhibitor-3 (I3), I3_(1-126) (natural protein, human, UniProt O60927 1-126, looked up, 15N-labelled in the NMR experiments, unlabelled in SPR; also called FL I3; PPP1R11; source: E. coli BL21 (DE3), purified (Ni-NTA, TEV, heat 95 °C, SEC); not shown: His6, N-terminal, cleaved; MBP, N-terminal, cleaved) MAEAGAGLSETVTETTVTVTTEPENRSLTIKLRKRKPEKKVEWTSDTVDNEHMGRRSSKCCCIYEKPRAFGESSTESDEEEEEGCGHTHCVRGHRKGRRRATLGPTPTTPPQPPDPSQPPPGPMQH |  | binds | 132 ± 5
I3_(1-126) C60S/C61S/C62S (natural protein, human, UniProt O60927 1-126, looked up, also called I3_(1-126) SSS; I3 SSS; source: E. coli BL21 (DE3), purified (Ni-NTA, TEV, heat 95 °C, SEC); not shown: His6, N-terminal, cleaved; MBP, N-terminal, cleaved) MAEAGAGLSETVTETTVTVTTEPENRSLTIKLRKRKPEKKVEWTSDTVDNEHMGRRSSKSSSIYEKPRAFGESSTESDEEEEEGCGHTHCVRGHRKGRRRATLGPTPTTPPQPPDPSQPPPGPMQH |  |  | 400 ± 44
